Here are results for twelve molecules from US20260327578A1, “TRANSGLUTAMINASES AND USES THEREOF” (CURIE CO. INC., priority 2023, published 2026).

The chains are these.
B1: S10: Tgase variant S2P Q124E K151R K152R relative to SEQ ID NO: 2 (protein, UniProt P81453 77-407, looked up, variant S2P Q124E K151R K152R)
Protein-glutamine …: DPDDRVTPPAEPLDRMPDPYRPSYGRAETVVNNYIRKWQQVYSHRDGRKQQMTEEQREWLSYGCVGVTWVNSGQYPTNRLAFASFDEDRFKNELKNGRPRSGETRAEFEGRVAKESFDEEKGFERAREVASVMNRALENAHDESAYLDNLRRELANGNDALRNEDARSPFYSALRNTPSFKERNGGNHDPSRMKAVIYSKHFWSGQDRSSSADKRKYGDPDAFRPAPGTGLVDMSRDRNIPRSPTSPGEGFVNFDYGWFGAQTEADADKTVWTHGNHYHAPNGSLGAMHVYESKFRNWSEGYSDFDRGAYVITFIPKSWNTAPDKVKQGWP
B2: S21: Tgase variant S2P Q50T Q51A Q74M K95E Q124L K151R K152R relative to SEQ ID NO: 2 (protein, UniProt P81453 77-407, looked up, variant S2P Q50T Q51A Q74M K95E Q124L K151R K152R)
Protein-glutamine …: DPDDRVTPPAEPLDRMPDPYRPSYGRAETVVNNYIRKWQQVYSHRDGRKTAMTEEQREWLSYGCVGVTWVNSGMYPTNRLAFASFDEDRFKNELENGRPRSGETRAEFEGRVAKESFDEEKGFLRAREVASVMNRALENAHDESAYLDNLRRELANGNDALRNEDARSPFYSALRNTPSFKERNGGNHDPSRMKAVIYSKHFWSGQDRSSSADKRKYGDPDAFRPAPGTGLVDMSRDRNIPRSPTSPGEGFVNFDYGWFGAQTEADADKTVWTHGNHYHAPNGSLGAMHVYESKFRNWSEGYSDFDRGAYVITFIPKSWNTAPDKVKQGWP
B3: S19: Tgase variant S2P K49H Q50A Q74C Q124N K151R K152R relative to SEQ ID NO: 2 (protein, UniProt P81453 77-407, looked up, variant S2P K49H Q50A Q74C Q124N K151R K152R)
Protein-glutamine …: DPDDRVTPPAEPLDRMPDPYRPSYGRAETVVNNYIRKWQQVYSHRDGRHAQMTEEQREWLSYGCVGVTWVNSGCYPTNRLAFASFDEDRFKNELKNGRPRSGETRAEFEGRVAKESFDEEKGFNRAREVASVMNRALENAHDESAYLDNLRRELANGNDALRNEDARSPFYSALRNTPSFKERNGGNHDPSRMKAVIYSKHFWSGQDRSSSADKRKYGDPDAFRPAPGTGLVDMSRDRNIPRSPTSPGEGFVNFDYGWFGAQTEADADKTVWTHGNHYHAPNGSLGAMHVYESKFRNWSEGYSDFDRGAYVITFIPKSWNTAPDKVKQGWP
B4: S12: Tgase variant S2P Q124L K151R K152R relative to SEQ ID NO: 2 (protein, UniProt P81453 77-407, looked up, variant S2P Q124L K151R K152R)
Protein-glutamine …: DPDDRVTPPAEPLDRMPDPYRPSYGRAETVVNNYIRKWQQVYSHRDGRKQQMTEEQREWLSYGCVGVTWVNSGQYPTNRLAFASFDEDRFKNELKNGRPRSGETRAEFEGRVAKESFDEEKGFLRAREVASVMNRALENAHDESAYLDNLRRELANGNDALRNEDARSPFYSALRNTPSFKERNGGNHDPSRMKAVIYSKHFWSGQDRSSSADKRKYGDPDAFRPAPGTGLVDMSRDRNIPRSPTSPGEGFVNFDYGWFGAQTEADADKTVWTHGNHYHAPNGSLGAMHVYESKFRNWSEGYSDFDRGAYVITFIPKSWNTAPDKVKQGWP
B5: S16: Tgase variant S2P Q50S Q74A K91H Q124L K151R K152R relative to SEQ ID NO: 2 (protein, UniProt P81453 77-407, looked up, variant S2P Q50S Q74A K91H Q124L K151R K152R)
Protein-glutamine …: DPDDRVTPPAEPLDRMPDPYRPSYGRAETVVNNYIRKWQQVYSHRDGRKSQMTEEQREWLSYGCVGVTWVNSGAYPTNRLAFASFDEDRFHNELKNGRPRSGETRAEFEGRVAKESFDEEKGFLRAREVASVMNRALENAHDESAYLDNLRRELANGNDALRNEDARSPFYSALRNTPSFKERNGGNHDPSRMKAVIYSKHFWSGQDRSSSADKRKYGDPDAFRPAPGTGLVDMSRDRNIPRSPTSPGEGFVNFDYGWFGAQTEADADKTVWTHGNHYHAPNGSLGAMHVYESKFRNWSEGYSDFDRGAYVITFIPKSWNTAPDKVKQGWP
B6: S20: Tgase variant S2P Q51A Q74T K95I Q124L K151R K152R relative to SEQ ID NO: 2 (protein, UniProt P81453 77-407, looked up, variant S2P Q51A Q74T K95I Q124L K151R K152R)
Protein-glutamine …: DPDDRVTPPAEPLDRMPDPYRPSYGRAETVVNNYIRKWQQVYSHRDGRKQAMTEEQREWLSYGCVGVTWVNSGTYPTNRLAFASFDEDRFKNELINGRPRSGETRAEFEGRVAKESFDEEKGFLRAREVASVMNRALENAHDESAYLDNLRRELANGNDALRNEDARSPFYSALRNTPSFKERNGGNHDPSRMKAVIYSKHFWSGQDRSSSADKRKYGDPDAFRPAPGTGLVDMSRDRNIPRSPTSPGEGFVNFDYGWFGAQTEADADKTVWTHGNHYHAPNGSLGAMHVYESKFRNWSEGYSDFDRGAYVITFIPKSWNTAPDKVKQGWP
B7: S17: Tgase variant S2P Q50S Q74A K91H Q124N K151R K152R relative to SEQ ID NO: 2 (protein, UniProt P81453 77-407, looked up, variant S2P Q50S Q74A K91H Q124N K151R K152R)
Protein-glutamine …: DPDDRVTPPAEPLDRMPDPYRPSYGRAETVVNNYIRKWQQVYSHRDGRKSQMTEEQREWLSYGCVGVTWVNSGAYPTNRLAFASFDEDRFHNELKNGRPRSGETRAEFEGRVAKESFDEEKGFNRAREVASVMNRALENAHDESAYLDNLRRELANGNDALRNEDARSPFYSALRNTPSFKERNGGNHDPSRMKAVIYSKHFWSGQDRSSSADKRKYGDPDAFRPAPGTGLVDMSRDRNIPRSPTSPGEGFVNFDYGWFGAQTEADADKTVWTHGNHYHAPNGSLGAMHVYESKFRNWSEGYSDFDRGAYVITFIPKSWNTAPDKVKQGWP
B8: S13: Tgase variant S2P Q124N K151R K152R relative to SEQ ID NO: 2 (protein, UniProt P81453 77-407, looked up, variant S2P Q124N K151R K152R)
Protein-glutamine …: DPDDRVTPPAEPLDRMPDPYRPSYGRAETVVNNYIRKWQQVYSHRDGRKQQMTEEQREWLSYGCVGVTWVNSGQYPTNRLAFASFDEDRFKNELKNGRPRSGETRAEFEGRVAKESFDEEKGFNRAREVASVMNRALENAHDESAYLDNLRRELANGNDALRNEDARSPFYSALRNTPSFKERNGGNHDPSRMKAVIYSKHFWSGQDRSSSADKRKYGDPDAFRPAPGTGLVDMSRDRNIPRSPTSPGEGFVNFDYGWFGAQTEADADKTVWTHGNHYHAPNGSLGAMHVYESKFRNWSEGYSDFDRGAYVITFIPKSWNTAPDKVKQGWP
B9: S15: Tgase variant S2P Q51P Q56M Q74A K91E relative to SEQ ID NO: 2 (protein, UniProt P81453 77-407, looked up, variant S2P Q51P Q56M Q74A K91E)
Protein-glutamine …: DPDDRVTPPAEPLDRMPDPYRPSYGRAETVVNNYIRKWQQVYSHRDGRKQPMTEEMREWLSYGCVGVTWVNSGAYPTNRLAFASFDEDRFENELKNGRPRSGETRAEFEGRVAKESFDEEKGFQRAREVASVMNRALENAHDESAYLDNLKKELANGNDALRNEDARSPFYSALRNTPSFKERNGGNHDPSRMKAVIYSKHFWSGQDRSSSADKRKYGDPDAFRPAPGTGLVDMSRDRNIPRSPTSPGEGFVNFDYGWFGAQTEADADKTVWTHGNHYHAPNGSLGAMHVYESKFRNWSEGYSDFDRGAYVITFIPKSWNTAPDKVKQGWP
B10: S14: Tgase variant S2P Q50S Q51E Q56E relative to SEQ ID NO: 2 (protein, UniProt P81453 77-407, looked up, variant S2P Q50S Q51E Q56E)
Protein-glutamine …: DPDDRVTPPAEPLDRMPDPYRPSYGRAETVVNNYIRKWQQVYSHRDGRKSEMTEEEREWLSYGCVGVTWVNSGQYPTNRLAFASFDEDRFKNELKNGRPRSGETRAEFEGRVAKESFDEEKGFQRAREVASVMNRALENAHDESAYLDNLKKELANGNDALRNEDARSPFYSALRNTPSFKERNGGNHDPSRMKAVIYSKHFWSGQDRSSSADKRKYGDPDAFRPAPGTGLVDMSRDRNIPRSPTSPGEGFVNFDYGWFGAQTEADADKTVWTHGNHYHAPNGSLGAMHVYESKFRNWSEGYSDFDRGAYVITFIPKSWNTAPDKVKQGWP
B11: S11: Tgase variant S2P Q124I K151R K152R relative to SEQ ID NO: 2 (protein, UniProt P81453 77-407, looked up, variant S2P Q124I K151R K152R)
Protein-glutamine …: DPDDRVTPPAEPLDRMPDPYRPSYGRAETVVNNYIRKWQQVYSHRDGRKQQMTEEQREWLSYGCVGVTWVNSGQYPTNRLAFASFDEDRFKNELKNGRPRSGETRAEFEGRVAKESFDEEKGFIRAREVASVMNRALENAHDESAYLDNLRRELANGNDALRNEDARSPFYSALRNTPSFKERNGGNHDPSRMKAVIYSKHFWSGQDRSSSADKRKYGDPDAFRPAPGTGLVDMSRDRNIPRSPTSPGEGFVNFDYGWFGAQTEADADKTVWTHGNHYHAPNGSLGAMHVYESKFRNWSEGYSDFDRGAYVITFIPKSWNTAPDKVKQGWP
B12: S18: Tgase variant S2P K49H Q50A Q74C Q124L K151R K152R relative to SEQ ID NO: 2 (protein, UniProt P81453 77-407, looked up, variant S2P K49H Q50A Q74C Q124L K151R K152R)
Protein-glutamine …: DPDDRVTPPAEPLDRMPDPYRPSYGRAETVVNNYIRKWQQVYSHRDGRHAQMTEEQREWLSYGCVGVTWVNSGCYPTNRLAFASFDEDRFKNELKNGRPRSGETRAEFEGRVAKESFDEEKGFLRAREVASVMNRALENAHDESAYLDNLRRELANGNDALRNEDARSPFYSALRNTPSFKERNGGNHDPSRMKAVIYSKHFWSGQDRSSSADKRKYGDPDAFRPAPGTGLVDMSRDRNIPRSPTSPGEGFVNFDYGWFGAQTEADADKTVWTHGNHYHAPNGSLGAMHVYESKFRNWSEGYSDFDRGAYVITFIPKSWNTAPDKVKQGWP

This test has as its system N,N-dimethylcasein. The test can be described thus: Chemostability: residual Tgase activity after 24 hour incubation at 20-30 °C, normalized to wild-type. Format: biochemical. The note with it: improvement relative to wild-type mature Tgase (SEQ ID NO: 2); residual activity after 24 h at 20-30 °C in cell-free extract. As for the experimental part: Table 5 depicts variants of Streptomyces mobaraensis Tgase and improvement to stability relative to wild-type mature Tgase (SEQ ID NO. 2) as determined in Example 3. Numbering of amino acid positions is in reference to the mature S. mobaraensis Tgase sequence depicted in SEQ ID NO. 2. A “+” indicates an improvement between 1.2 and 2-fold. A “++” indicates an improvement greater than 2-fold.
To evaluate chemostability, Tgase samples in cell-free extract were assayed for activity, using the assay described in Example 4B, immediately after expression and again following a 24 hour incubation at 20-30° C. Mature Tgase variant residual activity was normalized to the residual activity of the wild-type and results are depicted in Table 5.
Protein functionalization by Tgase variants was determined by the fluorogenic labeling of casein using monodansylcadaverine (e.g., a commercially available kit such as the Transglutaminase Fluorogenic Activity Assay Kit, T036, Zedira, Germany). Tgase activity was monitored by measuring fluorescence (excitation wavelength 332 nm; emission wavelength 500 nm) using a BioTek Synergy H1 microplate reader. Transglutaminase-catalyzed covalent coupling (crosslinking) of monodansylcadaverine with N,N-dimethylcasein produces a product that causes a shift in intensity and wavelength of fluorescence of the dansyl group now linked to the casein. The relative transglutaminase activity is shown by increase of fluorescence intensity over time. Enzyme variant loading was optimized based on expression levels, ensuring enzyme was the rate limiting factor. Briefly, cell-free reactions (set up as described in Example 2A) were first diluted 10-fold using phosphate buffer, pH 7.4, and a 5 microliter aliquot was analyzed.
On to B1, for which the Stability result is “++ (an improvement greater than 2-fold)”.

For the molecule B2, the Stability entry was “+ (an improvement between 1.2 and 2-fold)”. Regarding B3, the Stability result is “+ (an improvement between 1.2 and 2-fold)”.

B4: the Stability result is reported as “++ (an improvement greater than 2-fold)”. As to B5, the Stability entry is recorded as “++ (an improvement greater than 2-fold)”. With B6, the Stability result was “+ (an improvement between 1.2 and 2-fold)”. Take B7: the Stability entry was “+ (an improvement between 1.2 and 2-fold)”. For the molecule B8, the Stability result was “+ (an improvement between 1.2 and 2-fold)”. With B9, the Stability result is listed as “++ (an improvement greater than 2-fold)”. The same measure for B10: “++ (an improvement greater than 2-fold)”; for B11: “++ (an improvement greater than 2-fold)”. As to B12, the Stability result was “+ (an improvement between 1.2 and 2-fold)”.
